Measurements: publication doi:10.1101/151191 (bioRxiv, 2017)

Columns and labels:
SEC = target: the molecule itself; experiment: SEC
AUC = target: the molecule itself; experiment: AUC

B1: α-mDelNT (N-terminal half of mouse α-Delphilin) (domain or fragment, UniProt Q0QWG9-2 1-558, looked up)
chain: MSCLGIFIPKKHRARFDEVVSQGLLGKLCRARRAQGAQRLRRSRSEERPERLLVSTRASAAPRRPDEPPPRKATSLLGGRTGPGGPRRTVRVYKGNKSFGFTLRGHGPVWIESVLPGSPAENASLKSGDRILFLNGLDMRNCSHDKVVSMLQGSGAMPTLVVEEGPVPFASDSDSLDSPTRASALTSLQWVADILPSSIRVQGRTFSQQLDHLLTPPERYGVCRALERFFQHRNIDTLIVDVYPVLDTPAKQVLWQFLYQLLTYEEQELCQEKIACFLGYTAMTEPESSLDLEPESTPEPTPEPQPRSSLRASSMCRRSLRSQGLETSLSCGPGDCPEMPLPLIPGERQAGDGTSLPETPNPKMMSAVYAELESRLNSSFKGKIGTMSKSRASPPVPSLVGTSGPRTLSGVSWPSDRLLPSPCYDPLCSGGLASPSSSESHPYASLDSSRAPSPQPGLGSIHADSPPSPDPIRPPSRRKLFAFSRPVRSRDTDRFLDALSEQLGPRLSIVDDFLTPENDYEEMSFHDDQGSFVTNERSSASECVSSSEEGSSLTYSSI
- stoichiometry N (SEC): 7 subunits
- stoichiometry N (AUC): 6 subunits
